Positions of bridges follow the written chain, without caps; N, C: chain ends. No end group written: not given here. *: point of attachment. βGlcNAc = CC(=O)N[C@@H]1[C@@H](O)[C@H](O)[C@@H](CO)O[C@H]1*; diGlcNAc = diGlcNAc sugar chain; disialo = disialo sugar chain; GlcNAc = N-acetylglucosamine
Tests used:
SSTR3 [1] = biological target: T1, SSTR3 (Human, UniProt P32745 1-418); assay: cell-based or functional assay
SSTR4 [2] = biological target: T2, SSTR4 (Human, UniProt P31391 1-388); assay: cell-based or functional assay
SSTR5 = SSTR5 (Human, UniProt P35346 1-364); assay: radioligand competition, membranes
SSTR2 = SSTR2 (Human, UniProt P30874 1-369); assay: cell-based or functional assay
SSTR1 [3] = biological target: T3, SSTR1 (Human, UniProt P30872 1-391); assay: radioligand competition, membranes
SSTR4 [4] = biological target: T2, SSTR4; assay: cell-based or functional assay; remark: listed apart in the source
SSTR1 [5] = biological target: T3, SSTR1; assay: cell-based or functional assay
SSTR3 [6] = biological target: T1, SSTR3; assay: radioligand competition, membranes
SSTR1-SSTR5 = assay: radioligand competition, membranes

T1 sequence (P32745 whole entry): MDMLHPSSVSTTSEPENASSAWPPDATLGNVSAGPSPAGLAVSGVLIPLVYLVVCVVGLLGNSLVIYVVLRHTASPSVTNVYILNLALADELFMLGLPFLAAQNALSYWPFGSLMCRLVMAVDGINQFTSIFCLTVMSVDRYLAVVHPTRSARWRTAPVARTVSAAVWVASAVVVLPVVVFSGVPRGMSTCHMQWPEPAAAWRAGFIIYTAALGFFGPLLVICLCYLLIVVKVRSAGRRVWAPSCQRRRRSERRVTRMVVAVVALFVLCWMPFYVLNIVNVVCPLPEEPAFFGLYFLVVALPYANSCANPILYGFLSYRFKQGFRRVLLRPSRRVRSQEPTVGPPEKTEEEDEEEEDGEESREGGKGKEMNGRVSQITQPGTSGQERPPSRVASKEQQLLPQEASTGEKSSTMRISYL
SSTR2, sequence (P30874 whole entry): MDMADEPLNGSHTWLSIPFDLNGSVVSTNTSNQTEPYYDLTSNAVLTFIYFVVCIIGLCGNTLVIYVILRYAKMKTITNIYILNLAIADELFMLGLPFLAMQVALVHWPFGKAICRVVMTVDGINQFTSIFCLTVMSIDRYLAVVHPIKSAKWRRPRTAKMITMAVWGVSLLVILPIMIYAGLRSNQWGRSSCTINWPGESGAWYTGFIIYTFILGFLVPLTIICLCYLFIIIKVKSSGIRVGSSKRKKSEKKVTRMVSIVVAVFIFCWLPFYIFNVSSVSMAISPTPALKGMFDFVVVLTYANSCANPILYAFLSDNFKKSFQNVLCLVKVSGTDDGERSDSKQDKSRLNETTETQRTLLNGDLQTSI
T2 sequence (P31391 whole entry): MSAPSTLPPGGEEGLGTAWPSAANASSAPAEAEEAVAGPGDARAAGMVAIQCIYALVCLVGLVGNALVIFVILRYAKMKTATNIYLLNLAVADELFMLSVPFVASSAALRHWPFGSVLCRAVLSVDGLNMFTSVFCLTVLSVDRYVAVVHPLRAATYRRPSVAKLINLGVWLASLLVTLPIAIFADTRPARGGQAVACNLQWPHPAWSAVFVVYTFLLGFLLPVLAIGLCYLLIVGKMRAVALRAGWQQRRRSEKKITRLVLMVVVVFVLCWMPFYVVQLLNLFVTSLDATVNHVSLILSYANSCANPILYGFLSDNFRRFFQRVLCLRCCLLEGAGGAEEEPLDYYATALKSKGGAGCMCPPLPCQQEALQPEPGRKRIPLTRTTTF
T3 sequence (P30872 whole entry): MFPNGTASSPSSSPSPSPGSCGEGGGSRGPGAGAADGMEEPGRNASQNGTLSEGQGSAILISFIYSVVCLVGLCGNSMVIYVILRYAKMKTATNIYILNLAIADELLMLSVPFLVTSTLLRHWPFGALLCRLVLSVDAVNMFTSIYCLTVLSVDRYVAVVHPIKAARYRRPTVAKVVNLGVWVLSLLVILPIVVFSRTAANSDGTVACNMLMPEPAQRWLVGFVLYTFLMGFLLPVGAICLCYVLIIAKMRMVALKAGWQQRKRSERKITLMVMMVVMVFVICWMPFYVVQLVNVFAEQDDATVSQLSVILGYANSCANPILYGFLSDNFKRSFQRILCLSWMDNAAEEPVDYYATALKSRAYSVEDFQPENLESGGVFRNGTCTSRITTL
SSTR5, sequence (P35346 whole entry): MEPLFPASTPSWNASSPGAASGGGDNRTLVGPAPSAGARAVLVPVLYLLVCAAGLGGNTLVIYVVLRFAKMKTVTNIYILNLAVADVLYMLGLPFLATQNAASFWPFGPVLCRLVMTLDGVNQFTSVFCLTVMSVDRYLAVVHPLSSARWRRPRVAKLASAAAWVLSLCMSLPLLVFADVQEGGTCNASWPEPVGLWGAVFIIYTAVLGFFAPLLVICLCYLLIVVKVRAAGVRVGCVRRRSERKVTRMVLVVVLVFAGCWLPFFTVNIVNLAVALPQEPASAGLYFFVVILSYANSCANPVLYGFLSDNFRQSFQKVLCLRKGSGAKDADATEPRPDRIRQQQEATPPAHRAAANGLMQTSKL

B1: C(disialo)-K-SRIF14 (peptide)
peptide: C(disialo)KAGCKNFFWKTFTSC
modifications: disulfide 5-16
Which “IC50 of agonist activity (cAMP)” value (SSTR3 [1]) does the source give for B1 here?
The value was 100 pM.

B2: C(disialo)-SRIF14 (peptide)
peptide: CAGCKNFFWKTFTSC
modifications: disialo sugar chain on Cys added at the N-terminus of SRIF14; disulfide Cys17-Cys28 (SRIF28 numbering)
Which “IC50 of agonist activity (cAMP)” value (SSTR4 [2]) does the source give for B2 here?
Its value is 100 pM.

B3: S1-10C(disialo)-SRIF28 (peptide)
peptide: C(disialo)C(disialo)C(disialo)C(disialo)C(disialo)C(disialo)C(disialo)C(disialo)C(disialo)C(disialo)ANSNPAMAPRERKAGCKNFFWKTFTSC
modifications: disulfide 26-37
For B3, which IC50 (SSTR5) is on record?
The IC50 was 34800 pM.

B4: S1C(GlcNAc)-SRIF28 (peptide)
peptide: C(βGlcNAc)ANSNPAMAPRERKAGCKNFFWKTFTSC
modifications: disulfide 17-28
For B4, which “IC50 of agonist activity (cAMP)” value (SSTR2) is on record?
The value was 40 pM.

B5: 3C(disialo)-R-K-SRIF14 (peptide)
peptide: CCCRKAGCKNFFWKTFTSC
modifications: three N-terminal Cys each with a disialo sugar chain (Cys-Cys-Cys-Arg-Lys- added to SRIF14); disulfide Cys17-Cys28 (SRIF28 numbering)
B5 was tested. Which Ki (SSTR1 [3]) did it give?
Its Ki is 270000 pM.

B6: S1C(diGlcNAc)-SRIF28 (peptide)
peptide: C(diGlcNAc)ANSNPAMAPRERKAGCKNFFWKTFTSC
modifications: disulfide 17-28
With B6 as the binder, how does the “IC50 of agonist activity (cAMP)” value (SSTR4 [2]) read?
The value was 50 pM.

B7: S1-3C(asialo)-SRIF28 (peptide)
peptide: CCCANSNPAMAPRERKAGCKNFFWKTFTSC
modifications: Ser 1 replaced by three consecutive Cys each with an asialo sugar chain; disulfide Cys17-Cys28 (SRIF28 numbering)
Which “IC50 of agonist activity (cAMP)” value (SSTR4 [2]) does the source give for B7 here?
The value was 100 pM.

B8: C(disialo)-R-K-SRIF14 (peptide)
peptide: C(disialo)RKAGCKNFFWKTFTSC
modifications: disulfide 6-17
Which “IC50 of cAMP production suppression (agonist activity)” value (SSTR4 [4]) does the source give for B8 here?
Its value is 50 pM.

B9: S1-5C(disialo)-SRIF28 (peptide)
peptide: CCCCCANSNPAMAPRERKAGCKNFFWKTFTSC
modifications: Ser 1 replaced by five consecutive Cys each with a disialo sugar chain; disulfide Cys17-Cys28 (SRIF28 numbering)
Which results are given for B9?
IC50 of agonist activity (cAMP) (SSTR1 [5]): 18000 pM; IC50 of agonist activity (cAMP) (SSTR3 [1]): 2000 pM; IC50 of agonist activity (cAMP) (SSTR2): 810 pM; IC50 of agonist activity (cAMP) (SSTR4 [2]): 270 pM

B10: N5C(disialo)•A9C(disialo)-SRIF28 (peptide)
peptide: SANSC(disialo)PAMC(disialo)PRERKAGCKNFFWKTFTSC
modifications: disulfide 17-28
Does B10 bind (SSTR3 [6])?
Result: binds

B11: S1C(disialo)•N5C(disialo)-SRIF28 (peptide)
peptide: C(disialo sugar chain)ANSC(disialo sugar chain)PAMAPRERKAGCKNFFWKTFTSC
modifications: disulfide 17-28
How did the ratio of Ki to the Ki of unglycosylated SRIF14 (SSTR1-SSTR5) turn out when B11 was run?
The ratio of Ki to the Ki of unglycosylated SRIF14 was 15.7.

B12: T26C(disialo)-SRIF28 (peptide)
peptide: SANSNPAMAPRERKAGCKNFFWKTFC(disialo sugar chain)SC
modifications: disulfide 17-28
Which IC50 (SSTR5) does the source give for B12 here?
The IC50 was 400000 pM.

B13: S1C(disialo)•N19C(GlcNAc)-SRIF28 (peptide)
peptide: C(disialo)ANSNPAMAPRERKAGCKC(GlcNAc)FFWKTFTSC
modifications: disulfide 17-28
Which “IC50 of agonist activity (cAMP)” value (SSTR2) does the source give for B13 here?
The value was 80 pM.

Reference: US20140315800A1 (published 2014)
